Literature values in article PMC4010523.

Target: complement C5 (Homo sapiens) (UniProt P01031)

- Kd: 0.12 nM
Substance: Eculizumab
